According to PMC6446880:

T1: IRF3 K359A (IRF3 (K359A)-his) (UniProt P70671 1-419, K359A)
T1 sequence: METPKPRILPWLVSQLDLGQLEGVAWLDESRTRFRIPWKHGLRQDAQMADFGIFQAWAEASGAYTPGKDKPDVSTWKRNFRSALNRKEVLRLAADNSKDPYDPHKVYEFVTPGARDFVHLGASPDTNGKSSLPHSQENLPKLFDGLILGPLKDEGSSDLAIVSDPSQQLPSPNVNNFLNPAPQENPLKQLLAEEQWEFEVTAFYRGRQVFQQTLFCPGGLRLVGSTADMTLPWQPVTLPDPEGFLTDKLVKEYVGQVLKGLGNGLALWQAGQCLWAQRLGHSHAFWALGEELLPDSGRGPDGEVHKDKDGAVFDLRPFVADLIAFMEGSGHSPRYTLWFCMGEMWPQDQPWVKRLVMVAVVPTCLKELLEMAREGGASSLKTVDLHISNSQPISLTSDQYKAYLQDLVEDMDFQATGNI

B1: IFN-β (Ifnb) promoter probe (dsDNA)
DNA 1: GAAAACTGAAAGGGAGAACTGAAAGT
DNA 2: ACTTTCAGTTCTCCCTTTCAGTTTTC
B2: IFN-α (Ifna4) promoter probe (dsDNA)
DNA 1: GAAAGTGAAAAGAGAATTGGAAAGC
DNA 2: GCTTTCCAATTCTCTTTTCACTTTC

Biological target: T1, IRF3 K359A (IRF3 (K359A)-his)
Test: EMSA

Row | Binder | binding result
1 | B1 | binds
2 | B2 | binds
